Several values for one entry are separate records, joined by “and”; a condition that tells them apart may be missing. Identical values can stand only once.

The conditions of this series: whole UniProt chain shown.
Setting [1] is: Bacillus amyloliquefaciens, pH 7, 25 °C, GdnHCl, CD, phosphate 20 mM.
Where [2] appears, read: Bacillus amyloliquefaciens, pH 8, 25 °C, Urea, Fluorescence, Tris-HCl 50 mM, reversible: yes.
Where [3] appears, read: Bacillus amyloliquefaciens, pH 8, Thermal, CD, Sodium phosphate 2 mM, reversible: yes.
Setting [4] is: Bacillus amyloliquefaciens, pH 8, Thermal, DSC, Sodium phosphate 10 mM, reversible: yes.
[5] abbreviates: Bacillus amyloliquefaciens, pH 9.5, Thermal, DSC, Sodium phosphate 10 mM, reversible: yes.
[6] abbreviates: Bacillus amyloliquefaciens, pH 7.5, Thermal, fluorescence, Pipes 10 mM, transition: 2.
The mark [7] stands for this setting: Aquifex aeolicus (strain VF5), pH 7, 20 °C, GdnHCl, Fluorescence, Sodium phosphate sodium chloride 25 mM 100 mM.
[8] abbreviates: Aliivibrio salmonicida (strain LFI1238), pH 8, Thermal, DSC, HEPES, MgCl2 NaCl 5 mM 0.175, reversible: no.
Setting [9] is: Aliivibrio salmonicida (strain LFI1238), pH 8, Thermal, DSC, HEPES, MgCl2 NaCl 5 mM 1, reversible: no.
Setting [10] is: Aliivibrio salmonicida (strain LFI1238), pH 8, Thermal, DSC, Tris-HCl 50mM, NaCl 0.175 M.
The mark [11] stands for this setting: Aliivibrio salmonicida (strain LFI1238), pH 8, Thermal, DSC, Tris-HCl 50mM, NaCl 1 M.
The mark [12] stands for this setting: Bacillus caldolyticus, pH 7, Thermal, CD, sodium cacodylate 100 mM, NaCl 2 M, reversible: yes.
Where [13] appears, read: Bacillus caldolyticus, pH 7, Thermal, CD, sodium cacodylate 100 mM, reversible: yes.
Setting [14] is: Bacillus licheniformis (strain ATCC 14580 / DSM 13 / JCM 2505 / CCUG 7422 / NBRC 12200 / NCIMB 9375 / NCTC 10341 / NRRL NRS-1264 / Gibson 46…, pH 7, Thermal, CD, Hepes 10 mM, reversible: Yes.

B1: Barstar wild type, P11540 (protein)
chain: MKKAVINGEQIRSISDLHQTLKKELALPEYYGENLDALWDCLTGWVEYPLVLEWRQFEQSKQLTENGAESVLQVFREAKAEGCDITIILS
As to B1, under setting [1], the “denaturant midpoint (higher = more stable)” value (“denaturant midpoint” for short) turned out to be 1.92 M and the unfolding free energy was 4.6 kcal/mol. Moreover, under “Bacillus amyloliquefaciens, pH 8, 10 °C, Urea, CD, Tris Cl 50 mM, KCl 100 mM”, the unfolding free energy is 3 kcal/mol. Under setting [2], the denaturant m value is 1.25 kcal/mol/M, the “denaturant midpoint” value turned out to be 3.87 M and the unfolding free energy was 4.84 kcal/mol. Besides, under setting [3], the Tm turned out to be 70 °C, the “heat capacity change of unfolding” value came to 1.49 kcal/mol/K and the “unfolding enthalpy (van 't Hoff)” value is 69.7 kcal/mol. Besides, under setting [4], the midpoint of thermal melting (Tm) was determined as 69.7 °C, the “heat capacity change of unfolding” value was 1.41 kcal/mol/K, the “unfolding enthalpy (calorimetric)” value was found to be 42.6 kcal/mol and the “unfolding enthalpy (van 't Hoff)” value worked out at 60 kcal/mol. Further, under setting [5], the Tm was determined as 68.7 °C, the “heat capacity change of unfolding” value amounted to 1.36 kcal/mol/K, the “unfolding enthalpy (calorimetric)” value turned out to be 41.2 kcal/mol and the “unfolding enthalpy (van 't Hoff)” value was 56.1 kcal/mol.

B2: Subtilisin BPN' wild type, P00782 (protein)
chain: MRGKKVWISLLFALALIFTMAFGSTSSAQAAGKSNGEKKYIVGFKQTMSTMSAAKKKDVISEKGGKVQKQFKYVDAASATLNEKAVKELKKDPSVAYVEEDHVAHAYAQSVPYGVSQIKAPALHSQGYTGSNVKVAVIDSGIDSSHPDLKVAGGASMVPSETNPFQDNNSHGTHVAGTVAALNNSIGVLGVAPSASLYAVKVLGADGSGQYSWIINGIEWAIANNMDVINMSLGGPSGSAALKAAVDKAVASGVVVVAAAGNEGTSGSSSTVGYPGKYPSVIAVGAVDSSNQRASFSSVGPELDVMAPGVSIQSTLPGNKYGAYNGTSMASPHVAGAAALILSKHPNWTNTQVRSSLENTTTKLGDSFYYGKGLINVQAAAQ
On to B2, for which the unfolding free energy (Bacillus amyloliquefaciens, pH 5, 20 °C, Thermal, DSC, Sodium acetate 100 mM, reversible: yes) amounted to 2.1 kcal/mol. Besides, the Tm runs as follows: (Bacillus amyloliquefaciens, pH 7, Thermal, CD, KPO4 100 mM) 65 °C; under setting [6], 53.9 °C and 56.8 °C; (Bacillus amyloliquefaciens, pH 8, Thermal, DSC, Tris-HCl 50 mM, CaCl2 10 mM, reversible: no) 78.3 °C; (Bacillus amyloliquefaciens, pH 8, Thermal, DSC, Tris-HCl 50 mM, KCl 50 mM) 58.9 °C. Also, under setting [6], the “unfolding enthalpy (calorimetric)” value is 55.8 kcal/mol and 56.7 kcal/mol.

B3: Cytidine deaminase wild type, Q9R2S1 (protein)
chain: MEIEQLIVEAKKARELAYVPYSKFPVGAALLTKGGSVYRGCNIENAAYSVCNCAERTALFKAYSEGEKEFTALAVIADTPRPVPPCGACRQVIAELCHGDMKVILANLKGDVKVMTVSELLPEAFSAEDLHA
With B3, the unfolding free energy (Bacillus caldolyticus, pH 7, 25 °C, GdnHCl, CD, potassium phosphate 20 mM, reversible: no) was found to be 4.3 kcal/mol.

B4: 3-isopropylmalate dehydrogenase wild type, P05645 (protein)
chain: MKKRIALLPGDGIGPEVLESATDVLKSVAERFNHEFEFEYGLIGGAAIDEHHNPLPEETVAACKNADAILLGAVGGPKWDQNPSELRPEKGLLSIRKQLDLFANLRPVKVFESLSDASPLKKEYIDNVDFVIVRELTGGLYFGQPSKRYVNTEGEQEAVDTLFYKRTEIERVIREGFKMAAARKGKVTSVDKANVLESSRLWREVAEDVAQEFPDVKLEHMLVDNAAMQLIYAPNQFDVVVTENMFGDILSDEASMLTGSLGMLPSASLSSSGLHLFEPVHGSAPDIAGKGMANPFAAILSAAMLLRTSFGLEEEAKAVEDAVNKVLASGKRTRDLARSEEFSSTQAITEEVKAAIMSENTISNV
Take B4: the Tm (Bacillus subtilis (strain 168), pH 7.6, Thermal, CD, Potassium phosphate 20 mM, reversible: yes) is 56 °C.

B5: wild type, O66926 (protein)
chain: MKKFLIPFLTFLGFTFSSELIPCKVVRVVDGDTFRCVPEGKSRFIKVRLMGIDTLETNNMKKGMGQAKWFYGGIRTVKEFGKKAKEFSKRLIDKKVVYLELPVRKMDNNGRYLAYVWLDEYRNKMLNLLLVKEGLAFVFIIPPQVKYLKELGEAQEEAYKDRRGFWKYFKGE
On to B5, for which, under setting [7], the denaturant m value came out at 1.02 kcal/mol/M, the “denaturant midpoint” value came out at 0.42 M and the unfolding free energy was found to be 2.8 kcal/mol.

B6: wild type, Q2XSL7 (protein)
chain: MKLIRLVISLIAVSFTVNVMAAPPSSFSKAKKEAVKIYLDYPTSFYCGCDITWKNKKKGIPELESCGYQVRKQEKRASRIEWEHVVPAWQFGHQRQCWQKGGRKNCTRNDKQFKSMEADLHNLVPAIGEVNGDRSNFRFSQWNGSKGAFYGQCAFKVDFKGRVAEPPAQSRGAIARTYLYMNNEYKFNLSKAQRQLMEAWNKQYPVSTWECTRDERIAKIQGNHNQFVYKACTK
With B6, the Tm is, setting by setting: under setting [8], 41.8 °C; under setting [9], 51.9 °C; under setting [10], 41.8 °C; under setting [11], 51.9 °C. In addition, the “unfolding enthalpy (calorimetric)” value is, setting by setting: under setting [8], 64 kcal/mol; under setting [9], 88.7 kcal/mol; under setting [10], 64 kcal/mol; under setting [11], 88.6 kcal/mol.

B7: Cold shock protein CspB wild type, P41016 (protein)
chain: MQRGKVKWFNNEKGYGFIEVEGGSDVFVHFTAIQGEGFKTLEEGQEVSFEIVQGNRGPQAANVVKL
In the case of B7, the unfolding free energy (Bacillus caldolyticus, pH 7, 60 °C, Thermal, CD, sodium cacodylate 100 mM, NaCl 2 M, reversible: yes) stood at 3.37 kcal/mol and the unfolding free energy (Bacillus caldolyticus, pH 7, 60 °C, Thermal, CD, sodium cacodylate 100 mM, reversible: yes) was 2.44 kcal/mol. For the same protein, the Tm under setting [12] came out at 84.4 °C and the melting temperature (Tm) under setting [13] was 76.9 °C. Further, the “unfolding enthalpy (van 't Hoff)” value was 61.4 kcal/mol under setting [12] and 58.6 kcal/mol under setting [13].

B8: Protein GrpE wild type, Q65H53 (protein)
chain: MAEEKQNEELNEQEELNETEAETAEAEQTAAEADAPAEETQTEMLEKQLKELQERLEEKENKLLRVQADFENYKRRARLDLEAAEKYRSQRIISDLLPALDNFERALQIDPDNEQTKSLLQGMEMVHRQILEALKNEGVEQIPSVGEQFDPNMHQAVMQVEDEAYESNAVVEELQKGYKLKDRVIRPSMVKVNQ
In the case of B8, under setting [14], the Tm worked out at 52 °C and the “unfolding enthalpy (van 't Hoff)” value is 99.9 kcal/mol.

B9: Serine protease 1 wild type, P00760 (protein)
chain: MKTFIFLALLGAAVAFPVDDDDKIVGGYTCGANTVPYQVSLNSGYHFCGGSLINSQWVVSAAHCYKSGIQVRLGEDNINVVEGNEQFISASKSIVHPSYNSNTLNNDIMLIKLKSAASLNSRVASISLPTSCASAGTQCLISGWGNTKSSGTSYPDVLKCLKAPILSDSSCKSAYPGQITSNMFCAGYLEGGKDSCQGDSGGPVVCSGKLQGIVSWGSGCAQKNKPGVYTKVCNYVSWIKQTIASN
As to B9, the unfolding free energy (Bos taurus, pH 5.8, 25 °C, GdnHCl, Fluorescence, MES 0.1 M) was determined as 10.9 kcal/mol.

By Tm is commonly meant the temperature at the midpoint of the melting transition.

The record behind these values is FireProtDB.
